Our source for the Kd, DLL3 affinity and Fold reduction in CD3 affinity compared to Tarlatamab values is patent US20250388703A1.

Test [1] has as its target Human CD3 E/D dimer (heterodimeric construct of human CD3 epsilon and CD3 delta domains, ACROBiosystems CDD-H52Wa) (human) (UniProt P07766). Briefly: column 'CD3 affinity (nM)'; assay not named on the sheet; BLI on human CD3 epsilon/delta-His per Example 1.
Test [2] has as its target DLL3 (human) (UniProt Q9NYJ7). Briefly: not named on the sheet; Example 1 describes flow cytometry on CHO-K1 cells over-expressing DLL3. Background: In flow cytometry, cells or beads pass a laser one at a time.
The target of test [3] is Human CD3 E/D dimer (heterodimeric construct of human CD3 epsilon and CD3 delta domains, ACROBiosystems CDD-H52Wa) (human) (UniProt P07766). Put plainly: BLI, CD3E/D-His on anti-His probes, 1:1 fit. (In BLI a coated tip is dipped into the sample, and binding shifts an interference pattern.)
Test [4] deals with Human CD28-his (ACROBiosystems CD8-H52H3) (human) (UniProt P10747). Put plainly: column 'CD28 affinity (nM)'; assay not named on the sheet; BLI on human CD28-His per Example 1.

Chain of Human CD3 E/D dimer (heterodimeric construct of human CD3 epsilon and CD3 delta domains, ACROBiosystems CDD-H52Wa) (human) (P07766 23-126 limits assumed, stated change not applied, chain 1 of 2): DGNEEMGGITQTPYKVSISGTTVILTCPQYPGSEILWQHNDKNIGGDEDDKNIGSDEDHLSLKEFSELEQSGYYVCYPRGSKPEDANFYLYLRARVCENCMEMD
Chain of Human CD3 E/D dimer (heterodimeric construct of human CD3 epsilon and CD3 delta domains, ACROBiosystems CDD-H52Wa) (human) (P04234 22-105 limits assumed, stated change not applied, chain 2 of 2, further chain): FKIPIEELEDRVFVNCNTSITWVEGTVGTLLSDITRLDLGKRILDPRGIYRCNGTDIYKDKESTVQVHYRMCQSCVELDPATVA
Chain of DLL3 (human) (Q9NYJ7 27-492 limits assumed): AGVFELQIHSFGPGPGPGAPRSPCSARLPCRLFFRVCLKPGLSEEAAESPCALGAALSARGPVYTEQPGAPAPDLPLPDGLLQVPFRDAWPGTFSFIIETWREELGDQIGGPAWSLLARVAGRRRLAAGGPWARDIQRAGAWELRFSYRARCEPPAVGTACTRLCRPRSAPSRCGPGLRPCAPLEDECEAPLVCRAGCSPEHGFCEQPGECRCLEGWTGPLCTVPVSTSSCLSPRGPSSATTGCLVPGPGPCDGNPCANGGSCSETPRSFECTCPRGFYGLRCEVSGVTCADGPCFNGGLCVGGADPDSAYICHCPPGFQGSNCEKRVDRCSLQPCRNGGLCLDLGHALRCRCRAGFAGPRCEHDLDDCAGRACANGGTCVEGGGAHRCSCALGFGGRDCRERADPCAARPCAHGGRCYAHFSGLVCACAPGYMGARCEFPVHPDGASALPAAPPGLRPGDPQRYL

Usually Kd stands for the equilibrium constant for the complex coming apart. Higher therefore signals lower affinity. Substance “AMG757 (Tarlatamab, BM) (bispecific antibody)” gave a Kd in test [1] of 3 nM. Also, the DLL3 affinity in test [2] turned out to be 0.2 nM. For the same substance, in test [3], the Fold reduction in CD3 affinity compared to Tarlatamab was 1 fold and the dissociation constant Kd worked out at 2 nM.

Take 328_BM (SAR443216): the equilibrium dissociation constant (Kd) in test [1] came to 22.9 nM; in test [4], 4.32 nM.
